The target of experiment [1] is ErbB3 on rat Schwann cells (rat) (UniProt Q62799). Description: cell-based or functional assay.
The target in experiment [2] is ErbB4 on neonatal rat cardiomyocytes (rat) (UniProt Q62956). Nature of the experiment: cell-based or functional assay.

“And” between values parts separate entries of the source, which are not always exact repeats. Equal values may be shown once.

Sequence of ErbB4 on neonatal rat cardiomyocytes (rat) (Q62956 26-1308): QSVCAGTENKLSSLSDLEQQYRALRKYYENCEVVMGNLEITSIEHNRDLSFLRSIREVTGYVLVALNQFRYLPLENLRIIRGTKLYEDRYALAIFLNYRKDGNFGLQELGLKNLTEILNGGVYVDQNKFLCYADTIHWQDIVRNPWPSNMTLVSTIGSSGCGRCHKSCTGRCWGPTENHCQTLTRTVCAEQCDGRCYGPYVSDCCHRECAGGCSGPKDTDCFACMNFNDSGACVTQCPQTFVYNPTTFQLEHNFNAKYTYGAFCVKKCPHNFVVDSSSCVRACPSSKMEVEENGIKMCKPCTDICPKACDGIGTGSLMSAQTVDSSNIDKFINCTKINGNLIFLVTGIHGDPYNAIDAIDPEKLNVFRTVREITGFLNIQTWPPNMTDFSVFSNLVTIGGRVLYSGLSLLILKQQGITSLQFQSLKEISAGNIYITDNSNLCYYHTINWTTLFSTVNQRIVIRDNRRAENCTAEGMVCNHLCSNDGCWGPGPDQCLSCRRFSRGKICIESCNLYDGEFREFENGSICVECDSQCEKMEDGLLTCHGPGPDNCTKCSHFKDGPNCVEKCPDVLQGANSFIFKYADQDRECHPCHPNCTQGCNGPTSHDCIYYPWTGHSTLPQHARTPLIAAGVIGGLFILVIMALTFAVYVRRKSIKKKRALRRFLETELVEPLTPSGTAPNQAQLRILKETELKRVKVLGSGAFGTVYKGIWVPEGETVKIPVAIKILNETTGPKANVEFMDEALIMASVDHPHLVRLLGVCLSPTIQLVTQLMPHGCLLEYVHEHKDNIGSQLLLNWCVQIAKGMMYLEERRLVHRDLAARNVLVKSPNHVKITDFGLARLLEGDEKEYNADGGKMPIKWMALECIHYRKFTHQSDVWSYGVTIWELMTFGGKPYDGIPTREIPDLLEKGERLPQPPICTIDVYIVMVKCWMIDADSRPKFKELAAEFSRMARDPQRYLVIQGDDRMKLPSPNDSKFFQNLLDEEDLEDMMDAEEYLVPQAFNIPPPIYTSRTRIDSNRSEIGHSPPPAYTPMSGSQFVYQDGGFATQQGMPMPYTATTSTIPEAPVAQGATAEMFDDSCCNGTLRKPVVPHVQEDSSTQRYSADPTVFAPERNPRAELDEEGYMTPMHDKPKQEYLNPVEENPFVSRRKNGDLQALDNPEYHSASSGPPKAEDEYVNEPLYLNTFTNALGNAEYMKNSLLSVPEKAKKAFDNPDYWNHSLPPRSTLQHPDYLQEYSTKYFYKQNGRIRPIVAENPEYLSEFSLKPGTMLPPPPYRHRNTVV
Sequence of ErbB3 on rat Schwann cells (rat) (Q62799 20-1339): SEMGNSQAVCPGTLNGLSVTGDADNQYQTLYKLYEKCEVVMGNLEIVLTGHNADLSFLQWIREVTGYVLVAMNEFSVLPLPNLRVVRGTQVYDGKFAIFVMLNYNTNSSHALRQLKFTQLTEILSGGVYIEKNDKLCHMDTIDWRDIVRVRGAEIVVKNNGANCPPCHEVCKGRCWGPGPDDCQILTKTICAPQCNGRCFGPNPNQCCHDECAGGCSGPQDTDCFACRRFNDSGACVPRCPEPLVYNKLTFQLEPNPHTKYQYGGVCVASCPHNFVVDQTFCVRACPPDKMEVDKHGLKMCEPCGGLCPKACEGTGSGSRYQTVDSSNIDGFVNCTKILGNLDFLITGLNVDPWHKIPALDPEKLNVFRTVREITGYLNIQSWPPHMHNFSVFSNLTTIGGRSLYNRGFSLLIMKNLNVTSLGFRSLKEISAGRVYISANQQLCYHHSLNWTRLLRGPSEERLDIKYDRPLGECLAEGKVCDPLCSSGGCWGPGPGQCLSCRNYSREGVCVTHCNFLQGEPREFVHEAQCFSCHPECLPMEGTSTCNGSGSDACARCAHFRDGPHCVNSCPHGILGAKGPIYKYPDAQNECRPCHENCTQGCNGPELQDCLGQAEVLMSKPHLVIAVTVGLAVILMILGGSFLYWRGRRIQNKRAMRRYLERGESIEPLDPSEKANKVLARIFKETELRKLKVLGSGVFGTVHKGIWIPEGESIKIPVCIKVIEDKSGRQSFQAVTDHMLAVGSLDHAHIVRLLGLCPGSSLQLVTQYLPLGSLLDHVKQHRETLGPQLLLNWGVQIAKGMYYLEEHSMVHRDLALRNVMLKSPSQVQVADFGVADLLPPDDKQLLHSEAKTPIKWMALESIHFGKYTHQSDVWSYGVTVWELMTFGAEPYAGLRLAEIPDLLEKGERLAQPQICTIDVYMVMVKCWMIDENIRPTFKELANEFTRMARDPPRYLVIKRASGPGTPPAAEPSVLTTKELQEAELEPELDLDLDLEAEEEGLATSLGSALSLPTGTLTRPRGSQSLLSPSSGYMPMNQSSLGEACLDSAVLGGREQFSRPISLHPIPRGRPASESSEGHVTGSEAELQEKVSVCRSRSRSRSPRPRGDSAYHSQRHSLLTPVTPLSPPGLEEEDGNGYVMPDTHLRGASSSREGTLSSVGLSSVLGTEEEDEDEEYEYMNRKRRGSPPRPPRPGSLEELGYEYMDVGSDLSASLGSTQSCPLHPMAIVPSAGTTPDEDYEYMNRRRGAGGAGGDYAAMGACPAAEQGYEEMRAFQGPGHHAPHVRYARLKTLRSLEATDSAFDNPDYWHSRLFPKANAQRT

B1: huNRG1(S177-Q237)(3E6)::GG::huFcSEFL2 (Pb) (Fc fusion)
chain: SHLVKCAEKHKSFCVNGGECYVIEGSSIPSRFLCKCPNEFTGDRCQKDFMASFYKAEELYQGGDKTHTCPPCPAPELLGGPSVFLFPPKPKDTLMISRTPEVTCVVVDVSHEDPEVKFNWYVDGVEVHNAKTKPCEEQYGSTYRCVSVLTVLHQDWLNGKEYKCKVSNKALPAPIEKTISKAKGQPREPQVYTLPPSREEMTKNQVSLTCLVKGFYPSDIAVEWESNGQPENNYKTTPPVLDSDGSFFLYSKLTVDKSRWQQGNVFSCSVMHEALHNHYTQKSLSLSPGK
As for B1, the Schwann cells (SC) (ErbB3) Avg EC50 in experiment [1] was above 10000 nM. In addition, in experiment [2], the Cardiomyocyte (CM) (ErbB4) Avg EC50 came out at 0.35 nM and the Selectivity SC/CM is above 10000.

B2: huNRG1(S177-Q237)(_FVIEDPSI)::GG::huFcSEFL2 (Pb) (Fc fusion)
chain: SHLVKCAEKEKTFCVNGGECFVIEDPSIPSRYLCKCPNEFTGDRCQNYVMASFYKAEELYQGGDKTHTCPPCPAPELLGGPSVFLFPPKPKDTLMISRTPEVTCVVVDVSHEDPEVKFNWYVDGVEVHNAKTKPCEEQYGSTYRCVSVLTVLHQDWLNGKEYKCKVSNKALPAPIEKTISKAKGQPREPQVYTLPPSREEMTKNQVSLTCLVKGFYPSDIAVEWESNGQPENNYKTTPPVLDSDGSFFLYSKLTVDKSRWQQGNVFSCSVMHEALHNHYTQKSLSLSPGK
Take B2: in experiment [1], the Schwann cells (SC) (ErbB3) Avg EC50 turned out to be 4.27 nM. In experiment [2], this molecule registered a Cardiomyocyte (CM) (ErbB4) Avg EC50 of 0.177 nM and a Selectivity SC/CM of 24.

B3: huNRG1(S177-Q237)(_200E)::GG::huFcSEFL2 (Pb) (Fc fusion)
chain: SHLVKCAEKEKTFCVNGGECFMVEDLSNPSRYLCKCPNEFTGDRCQNYVMASFYKAEELYQGGDKTHTCPPCPAPELLGGPSVFLFPPKPKDTLMISRTPEVTCVVVDVSHEDPEVKFNWYVDGVEVHNAKTKPCEEQYGSTYRCVSVLTVLHQDWLNGKEYKCKVSNKALPAPIEKTISKAKGQPREPQVYTLPPSREEMTKNQVSLTCLVKGFYPSDIAVEWESNGQPENNYKTTPPVLDSDGSFFLYSKLTVDKSRWQQGNVFSCSVMHEALHNHYTQKSLSLSPGK
As to B3, the Schwann cells (SC) (ErbB3) Avg EC50 in experiment [1] is 4.82 nM. In experiment [2], this molecule returned a Cardiomyocyte (CM) (ErbB4) Avg EC50 of 0.452 nM and a Selectivity SC/CM of 11.

B4: huNRG1(S177-Q237)(wt)::GG::huFcSEFL2 (Pb) (Fc fusion)
chain: SHLVKCAEKEKTFCVNGGECFMVKDLSNPSRYLCKCPNEFTGDRCQNYVMASFYKAEELYQGGDKTHTCPPCPAPELLGGPSVFLFPPKPKDTLMISRTPEVTCVVVDVSHEDPEVKFNWYVDGVEVHNAKTKPCEEQYGSTYRCVSVLTVLHQDWLNGKEYKCKVSNKALPAPIEKTISKAKGQPREPQVYTLPPSREEMTKNQVSLTCLVKGFYPSDIAVEWESNGQPENNYKTTPPVLDSDGSFFLYSKLTVDKSRWQQGNVFSCSVMHEALHNHYTQKSLSLSPGK
For B4, the Schwann cells (SC) (ErbB3) Avg EC50 in experiment [1] was 0.112 nM and 0.15 nM. In addition, in experiment [2], the Cardiomyocyte (CM) (ErbB4) Avg EC50 is 0.275 nM and 0.6 nM; the Selectivity SC/CM is 0.4 and 0.3.

B5: huNRG1(S177-Q237)(3B8)::GG::huFcSEFL2 (Pb) (Fc fusion)
chain: SHLVKCGERDKSFCVNGGECFMVERSSIPSRYLCKCPNEFTGDRCQDFFLASFYKAEELYQGGDKTHTCPPCPAPELLGGPSVFLFPPKPKDTLMISRTPEVTCVVVDVSHEDPEVKFNWYVDGVEVHNAKTKPCEEQYGSTYRCVSVLTVLHQDWLNGKEYKCKVSNKALPAPIEKTISKAKGQPREPQVYTLPPSREEMTKNQVSLTCLVKGFYPSDIAVEWESNGQPENNYKTTPPVLDSDGSFFLYSKLTVDKSRWQQGNVFSCSVMHEALHNHYTQKSLSLSPGK
In experiment [1], B5 gave a Schwann cells (SC) (ErbB3) Avg EC50 of 3000 nM. In experiment [2], this molecule yielded a CM % Agonism AVG below 50%, a Cardiomyocyte (CM) (ErbB4) Avg EC50 of 1.4 nM and a Selectivity SC/CM of 2150.

B6: huNRG1(S177-Q237)(3F2)::GG::huFcSEFL2 (Pb) (Fc fusion)
chain: SHLVKCGESHKSFCVNGGECFMIEGPSNPSRYLCKCPNEFTGDRCQDDFMASFYKAEELYQGGDKTHTCPPCPAPELLGGPSVFLFPPKPKDTLMISRTPEVTCVVVDVSHEDPEVKFNWYVDGVEVHNAKTKPCEEQYGSTYRCVSVLTVLHQDWLNGKEYKCKVSNKALPAPIEKTISKAKGQPREPQVYTLPPSREEMTKNQVSLTCLVKGFYPSDIAVEWESNGQPENNYKTTPPVLDSDGSFFLYSKLTVDKSRWQQGNVFSCSVMHEALHNHYTQKSLSLSPGK
Molecule B6 showed a Schwann cells (SC) (ErbB3) Avg EC50 in experiment [1] above 10000 nM. In experiment [2], the CM % Agonism AVG was found to be 70%, the Cardiomyocyte (CM) (ErbB4) Avg EC50 stood at 0.738 nM and the Selectivity SC/CM was above 10000.

B7: huNRG1(S177-Q237)(3G3)::GG::huFcSEFL2 (Pb) (Fc fusion)
chain: SHLVKCGEREKTFCVNGGECFMIEHLSIPSRFLCKCPNEFTGDRCQEDFMASFYKAEELYQGGDKTHTCPPCPAPELLGGPSVFLFPPKPKDTLMISRTPEVTCVVVDVSHEDPEVKFNWYVDGVEVHNAKTKPCEEQYGSTYRCVSVLTVLHQDWLNGKEYKCKVSNKALPAPIEKTISKAKGQPREPQVYTLPPSREEMTKNQVSLTCLVKGFYPSDIAVEWESNGQPENNYKTTPPVLDSDGSFFLYSKLTVDKSRWQQGNVFSCSVMHEALHNHYTQKSLSLSPGK
In the case of B7, in experiment [1], the Schwann cells (SC) (ErbB3) Avg EC50 is above 10000 nM. In experiment [2], this molecule returned a CM % Agonism AVG of 70%, a Cardiomyocyte (CM) (ErbB4) Avg EC50 of 1.84 nM and a Selectivity SC/CM above 5400.

B8: huNRG1(S177-Q237)(3H8)::GG::huFcSEFL2 (Pb) (Fc fusion)
chain: SHLVKCGEKHKSFCVNGGECYMVEGSSIPSRYLCKCPNEFTGDRCQEDFMASFYKAEELYQGGDKTHTCPPCPAPELLGGPSVFLFPPKPKDTLMISRTPEVTCVVVDVSHEDPEVKFNWYVDGVEVHNAKTKPCEEQYGSTYRCVSVLTVLHQDWLNGKEYKCKVSNKALPAPIEKTISKAKGQPREPQVYTLPPSREEMTKNQVSLTCLVKGFYPSDIAVEWESNGQPENNYKTTPPVLDSDGSFFLYSKLTVDKSRWQQGNVFSCSVMHEALHNHYTQKSLSLSPGK
In the case of B8, the Schwann cells (SC) (ErbB3) Avg EC50 in experiment [1] was above 10000 nM. In addition, in experiment [2], the Cardiomyocyte (CM) (ErbB4) Avg EC50 came out at 0.276 nM and the Selectivity SC/CM was above 10000.

B9: huNRG1(S177-Q237)()200E_KDF)::GG::huFcSEFL2 (Pb) (Fc fusion)
chain: SHLVKCAEKEKTFCVNGGECFMVEDLSNPSRYLCKCPNEFTGDRCQKDFMASFYKAEELYQGGDKTHTCPPCPAPELLGGPSVFLFPPKPKDTLMISRTPEVTCVVVDVSHEDPEVKFNWYVDGVEVHNAKTKPCEEQYGSTYRCVSVLTVLHQDWLNGKEYKCKVSNKALPAPIEKTISKAKGQPREPQVYTLPPSREEMTKNQVSLTCLVKGFYPSDIAVEWESNGQPENNYKTTPPVLDSDGSFFLYSKLTVDKSRWQQGNVFSCSVMHEALHNHYTQKSLSLSPGK
As to B9, the Schwann cells (SC) (ErbB3) Avg EC50 in experiment [1] turned out to be 121 nM. Also, in experiment [2], the Cardiomyocyte (CM) (ErbB4) Avg EC50 worked out at 2 nM and the Selectivity SC/CM came to 60.

B10: huNRG1(S177-Q237)(3H5)::GG::huFcSEFL2 (Pb) (Fc fusion)
chain: SHLVKCGERHKSFCVNGGECYVVERPSIPSRFLCKCPNEFTGDRCQKDFLASFYKAEELYQGGDKTHTCPPCPAPELLGGPSVFLFPPKPKDTLMISRTPEVTCVVVDVSHEDPEVKFNWYVDGVEVHNAKTKPCEEQYGSTYRCVSVLTVLHQDWLNGKEYKCKVSNKALPAPIEKTISKAKGQPREPQVYTLPPSREEMTKNQVSLTCLVKGFYPSDIAVEWESNGQPENNYKTTPPVLDSDGSFFLYSKLTVDKSRWQQGNVFSCSVMHEALHNHYTQKSLSLSPGK
With B10, in experiment [1], the Schwann cells (SC) (ErbB3) Avg EC50 is above 10000 nM. In experiment [2], this molecule yielded a Cardiomyocyte (CM) (ErbB4) Avg EC50 of 1.27 nM and a Selectivity SC/CM above 7800.

B11: huNRG1(S177-Q237)(3G9)::GG::huFcSEFL2 (Pb) (Fc fusion)
chain: SHLVKCGESHKSFCVNGGECFMVEDLSNPSRFLCKCPNEFTGDRCQKDFMASFYKAEELYQGGDKTHTCPPCPAPELLGGPSVFLFPPKPKDTLMISRTPEVTCVVVDVSHEDPEVKFNWYVDGVEVHNAKTKPCEEQYGSTYRCVSVLTVLHQDWLNGKEYKCKVSNKALPAPIEKTISKAKGQPREPQVYTLPPSREEMTKNQVSLTCLVKGFYPSDIAVEWESNGQPENNYKTTPPVLDSDGSFFLYSKLTVDKSRWQQGNVFSCSVMHEALHNHYTQKSLSLSPGK
As for B11, the Schwann cells (SC) (ErbB3) Avg EC50 in experiment [1] is above 10000 nM. In experiment [2], this molecule registered a Cardiomyocyte (CM) (ErbB4) Avg EC50 of 0.581 nM and a Selectivity SC/CM above 10000.

B12: huNRG1(S177-Q237)(3D6)::GG::huFcSEFL2 (Pb) (Fc fusion)
chain: SHLVKCGESDKSFCVNGGECFVIEGSSIPSRFLCKCPNEFTGDRCQDFFMASFYKAEELYQGGDKTHTCPPCPAPELLGGPSVFLFPPKPKDTLMISRTPEVTCVVVDVSHEDPEVKFNWYVDGVEVHNAKTKPCEEQYGSTYRCVSVLTVLHQDWLNGKEYKCKVSNKALPAPIEKTISKAKGQPREPQVYTLPPSREEMTKNQVSLTCLVKGFYPSDIAVEWESNGQPENNYKTTPPVLDSDGSFFLYSKLTVDKSRWQQGNVFSCSVMHEALHNHYTQKSLSLSPGK
The molecule B12 had a Schwann cells (SC) (ErbB3) Avg EC50 in experiment [1] above 10000 nM. Also, in experiment [2], the CM % Agonism AVG was below 50%, the Cardiomyocyte (CM) (ErbB4) Avg EC50 worked out at 2.6 nM and the Selectivity SC/CM is above 3800.

B13: huNRG1(S177-Q237)(3E9)::GG::huFcSEFL2 (Pb) (Fc fusion)
chain: SHLVKCAENHKTFCVNGGECFVIEGSSNPSRYLCKCPNEFTGDRCQDVFLASFYKAEELYQGGDKTHTCPPCPAPELLGGPSVFLFPPKPKDTLMISRTPEVTCVVVDVSHEDPEVKFNWYVDGVEVHNAKTKPCEEQYGSTYRCVSVLTVLHQDWLNGKEYKCKVSNKALPAPIEKTISKAKGQPREPQVYTLPPSREEMTKNQVSLTCLVKGFYPSDIAVEWESNGQPENNYKTTPPVLDSDGSFFLYSKLTVDKSRWQQGNVFSCSVMHEALHNHYTQKSLSLSPGK
B13 returned a Schwann cells (SC) (ErbB3) Avg EC50 in experiment [1] above 3000 nM. In experiment [2], this molecule had a CM % Agonism AVG of 70%, a Cardiomyocyte (CM) (ErbB4) Avg EC50 of 2.68 nM and a Selectivity SC/CM above 8500.

B14: huNRG1(S177-Q237)(3D8)::GG::huFcSEFL2 (Pb) (Fc fusion)
chain: SHLVKCGEKDKTFCVNGGECFMVEDLSIPSRFLCKCPNEFTGDRCQDFFMASFYKAEELYQGGDKTHTCPPCPAPELLGGPSVFLFPPKPKDTLMISRTPEVTCVVVDVSHEDPEVKFNWYVDGVEVHNAKTKPCEEQYGSTYRCVSVLTVLHQDWLNGKEYKCKVSNKALPAPIEKTISKAKGQPREPQVYTLPPSREEMTKNQVSLTCLVKGFYPSDIAVEWESNGQPENNYKTTPPVLDSDGSFFLYSKLTVDKSRWQQGNVFSCSVMHEALHNHYTQKSLSLSPGK
With B14, the Schwann cells (SC) (ErbB3) Avg EC50 in experiment [1] is above 3000 nM. Moreover, in experiment [2], the CM % Agonism AVG was below 50%, the Cardiomyocyte (CM) (ErbB4) Avg EC50 was 0.51 nM and the Selectivity SC/CM is above 5800.

For the origin of these results see patent US20220402985A1.
